Like-named read-outs stand apart in the source and are kept apart here.
Key:
Assay in all cases: FRET or BRET
Venus-IQGAP1 (human) = Venus-IQGAP1 (human) (UniProt P46940)
mCherry-actin [1] = target: mCherry-actin (UniProt P60709)
mCherry-actin [2] = target: mCherry-actin (UniProt P60709); remark: listed apart in the source
mCherry-actin [3] = target: mCherry-actin (UniProt P60709); remark: listed apart in the source

Venus-IQGAP1, sequence (P46940 whole entry): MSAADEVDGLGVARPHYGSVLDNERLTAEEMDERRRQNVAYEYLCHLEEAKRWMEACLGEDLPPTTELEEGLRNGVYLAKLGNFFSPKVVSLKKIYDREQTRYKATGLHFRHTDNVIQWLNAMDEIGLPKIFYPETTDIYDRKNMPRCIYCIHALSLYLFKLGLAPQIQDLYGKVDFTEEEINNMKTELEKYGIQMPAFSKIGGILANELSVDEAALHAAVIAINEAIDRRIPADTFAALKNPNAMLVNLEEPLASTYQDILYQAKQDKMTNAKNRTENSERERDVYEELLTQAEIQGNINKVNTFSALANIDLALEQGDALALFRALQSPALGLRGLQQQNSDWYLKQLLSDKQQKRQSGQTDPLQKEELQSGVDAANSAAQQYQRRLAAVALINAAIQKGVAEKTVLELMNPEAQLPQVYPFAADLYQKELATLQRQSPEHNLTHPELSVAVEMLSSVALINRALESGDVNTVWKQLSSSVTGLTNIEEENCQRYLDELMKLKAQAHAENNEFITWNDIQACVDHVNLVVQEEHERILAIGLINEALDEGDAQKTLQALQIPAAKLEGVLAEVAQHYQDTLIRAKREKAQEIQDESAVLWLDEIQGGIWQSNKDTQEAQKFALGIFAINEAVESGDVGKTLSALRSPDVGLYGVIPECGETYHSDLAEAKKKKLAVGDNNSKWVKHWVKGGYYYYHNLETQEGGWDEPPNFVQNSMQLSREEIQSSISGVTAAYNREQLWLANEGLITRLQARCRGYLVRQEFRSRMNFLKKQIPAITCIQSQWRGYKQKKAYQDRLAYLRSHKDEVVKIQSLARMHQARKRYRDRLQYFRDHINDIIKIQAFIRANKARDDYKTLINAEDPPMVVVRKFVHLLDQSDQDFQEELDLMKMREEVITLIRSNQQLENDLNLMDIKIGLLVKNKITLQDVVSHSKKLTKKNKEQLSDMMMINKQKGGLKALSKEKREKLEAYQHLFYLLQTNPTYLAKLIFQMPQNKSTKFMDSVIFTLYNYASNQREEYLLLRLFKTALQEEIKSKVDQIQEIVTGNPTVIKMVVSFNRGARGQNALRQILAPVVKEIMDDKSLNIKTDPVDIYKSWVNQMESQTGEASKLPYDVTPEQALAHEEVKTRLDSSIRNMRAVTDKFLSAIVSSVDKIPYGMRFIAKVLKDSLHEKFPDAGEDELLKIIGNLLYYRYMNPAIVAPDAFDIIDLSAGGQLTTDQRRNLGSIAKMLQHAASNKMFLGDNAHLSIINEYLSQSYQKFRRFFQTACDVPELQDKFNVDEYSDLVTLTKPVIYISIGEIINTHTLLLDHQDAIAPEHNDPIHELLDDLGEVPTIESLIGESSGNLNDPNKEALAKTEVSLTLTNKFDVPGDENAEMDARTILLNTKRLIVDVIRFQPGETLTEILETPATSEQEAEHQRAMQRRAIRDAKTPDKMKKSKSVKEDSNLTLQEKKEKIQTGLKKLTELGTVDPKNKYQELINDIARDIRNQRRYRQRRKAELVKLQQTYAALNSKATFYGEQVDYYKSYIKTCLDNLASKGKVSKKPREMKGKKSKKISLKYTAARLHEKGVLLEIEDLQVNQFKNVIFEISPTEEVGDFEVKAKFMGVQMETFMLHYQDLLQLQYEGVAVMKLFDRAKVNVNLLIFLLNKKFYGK
CFP-Cdc42, P60953 1-191 (natural protein; other documents disagree on this pair), sequence (P60953 whole entry): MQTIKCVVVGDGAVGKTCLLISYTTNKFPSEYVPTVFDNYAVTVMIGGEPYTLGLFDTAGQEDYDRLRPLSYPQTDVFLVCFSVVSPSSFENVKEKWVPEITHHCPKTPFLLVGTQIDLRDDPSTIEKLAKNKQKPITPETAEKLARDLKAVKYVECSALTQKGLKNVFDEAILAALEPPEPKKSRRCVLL
Venus-IQGAP1 (human), sequence (P46940 whole entry): as the sequence (P46940 whole entry) above

Row | FRET efficiency E% at low D:A ratios (regression line) (Venus-IQGAP1 (human)) | average FRET efficiency E% (Venus-IQGAP1 (human)) | FRET efficiency E% at low D:A ratios (regression line) (mCherry-actin [1]) | FRET efficiency E% at low D:A ratios (regression line) (mCherry-actin [2]) | average FRET efficiency E% (mCherry-actin [2]) | average FRET efficiency E% (mCherry-actin [3]) | Substance
1 | 25% | 20% | – | – | – | – | CFP-Cdc42, P60953 1-191 (natural protein; other documents disagree on this pair)
2 | – | – | 25 to 35% | 25 to 35% | 31% | 26% | Venus-IQGAP1 (from UniProt P46940 1-1657) (natural protein)

From article PMC3917506
